The target of assay [1] is HLA-A*02:01. The assay is described as follows: IEDB peptide-MHC binding, purified MHC/direct/fluorescence; filed as Kd, often an IC50 or EC50 that approximates it; ≥ and ≤ were set here for values at or beyond the usual limits of such assays.
Assay [2] addresses HLA-A*02:03. The description is as above.
Assay [3] addresses HLA-A*02:11. Described as above.
For assay [4], the target named is HLA-A*02:12. The description is as above.
The target of assay [5] is HLA-A*02:16. The description is as above.
Assay [6] has as its target HLA-A*02:19. Described as above.
Assay [7] has as its target HLA-A*03:01. The assay is described as above.
In assay [8] the target is HLA-A*24:03. Described as above.
The target of assay [9] is HLA-A*26:01. The assay is described as above.
Assay [10] has as its target HLA-A*29:02. The assay is described as above.
Assay [11] deals with HLA-A*68:02. The description is as above.
The target in assay [12] is HLA-A*69:01. Described as above.
Assay [13] concerns the target HLA-B*15:01. The assay is described as above.
The target of assay [14] is HLA-B*15:17. The assay is described as above.
Assay [15] deals with HLA-B*18:01. The description is as above.
The target in assay [16] is HLA-B*27:03. The description is as above.
Assay [17] has as its target HLA-B*46:01. The assay is described as above.
In assay [18] the target is HLA-B*51:01. The assay is described as above.
The target of assay [19] is HLA-B*57:01. The description is as above.
Assay [20] has as its target HLA-A*23:01. The assay is described as above. Particulars: source organism: Influenza A virus (A/Memphis/1/1986(H3N2)).
In assay [21] the target is HLA-C*03:03. The assay is described as above.
Assay [22] addresses HLA-B*15:42. The assay is described as follows: IEDB peptide-MHC binding, purified MHC/competitive/fluorescence; filed as Kd, often an IC50 or EC50 that approximates it; ≥ and ≤ were set here for values at or beyond the usual limits of such assays. Particulars: source organism: Mycobacterium tuberculosis variant bovis BCG str. Pasteur 1173P2.
In assay [23] the target is HLA-B*45:06. The description is as above. Particulars: source organism: Mycobacterium tuberculosis variant bovis BCG str. Pasteur 1173P2.
In assay [24] the target is HLA-B*83:01. The assay is described as above. Particulars: source organism: Mycobacterium tuberculosis variant bovis BCG str. Pasteur 1173P2.
The target of assay [25] is HLA-A*02:03. The description is as above. The following applies: source organism: Human immunodeficiency virus 1.
In assay [26] the target is HLA-A*30:01. Described as above. The following applies: source organism: Human immunodeficiency virus 1.
The target of assay [27] is HLA-B*48:01. The description is as above.
Assay [28] concerns the target HLA-B*39:01. The assay is described as follows: IEDB peptide-MHC binding, purified MHC/direct/fluorescence; filed as Kd, often an IC50 or EC50 that approximates it; ≥ and ≤ were set here for values at or beyond the usual limits of such assays. The following applies: source organism: Entamoeba histolytica HM-1:IMSS.
Setting [29] is: source organism: Listeria monocytogenes serotype 4b str. H7858.
The mark [30] stands for this setting: source organism: Influenza A virus (A/Memphis/1/1986(H3N2)).
The mark [31] stands for this setting: source organism: Francisella tularensis subsp. holarctica LVS.
[32] abbreviates: source organism: Francisella tularensis subsp. tularensis FSC033.
[33] abbreviates: source organism: Entamoeba histolytica HM-1:IMSS.

Take ERYPGGVSL: the equilibrium dissociation constant (Kd) in assay [1] (setting [29]), in [2] (setting [29]), in [3] (setting [29]), in assay [4] (setting [29]), in assay [5] (setting [29]) and in assay [6] (setting [29]) was at least 20 µM throughout. For the same sequence, the Kd in [7] (setting [29]), in assay [8] (setting [29]), in assay [9] (setting [29]), in [10] (setting [29]), in [11] (setting [29]) and in assay [12] (setting [29]) was at least 20 µM in each case. For the same sequence, the Kd in assay [13] (setting [29]), in [14] (setting [29]), in assay [15] (setting [29]), in assay [16] (setting [29]), in [17] (setting [29]) and in assay [18] (setting [29]) was at least 20 µM in each case. The Kd in [19] (setting [29]) was at least 20 µM.
With FPDGKPFTL, the Kd in [1] (setting [29]), in assay [2] (setting [29]), in assay [3] (setting [29]), in assay [4] (setting [29]), in assay [5] (setting [29]) and in assay [6] (setting [29]) was at least 20 µM each time. In addition, the Kd in [7] (setting [29]), in assay [9] (setting [29]), in assay [10] (setting [29]), in [13] (setting [29]), in assay [14] (setting [29]) and in assay [15] (setting [29]) was at least 20 µM each time. The Kd in assay [16] (setting [29]), in [17] (setting [29]), in [18] (setting [29]) and in assay [19] (setting [29]) was at least 20 µM in each case.
In the case of NHDGIQAGV, the Kd in assay [1] (setting [30]), in assay [2] (setting [30]), in assay [3] (setting [30]), in [4] (setting [30]), in assay [5] (setting [30]) and in [6] (setting [30]) was at least 20 µM each time. Further, the Kd in assay [7] (setting [30]), in assay [20], in assay [8] (setting [30]), in assay [9] (setting [30]), in assay [10] (setting [30]) and in assay [11] (setting [30]) was at least 20 µM in each case. Moreover, the Kd in [12] (setting [30]), in assay [13] (setting [30]), in assay [14] (setting [30]), in assay [15] (setting [30]), in [16] (setting [30]) and in assay [17] (setting [30]) was at least 20 µM each time. Moreover, the dissociation constant Kd in assay [18] (setting [30]) and in [19] (setting [30]) was at least 20 µM in each case.
In the case of FLYDISISL, the Kd in [1] (setting [31]) was 0.0011 µM; in assay [3] (setting [32]), at most 0.001 µM; in assay [4] (setting [32]), 0.003 µM; in assay [6] (setting [32]) it was 0.007 µM; in assay [12] (setting [31]) it was 0.0157 µM; in assay [21] (source organism: Francisella tularensis subsp. tularensis FSC198) it was at most 0.001 µM.
With AIYDTMQYV, the Kd was 0.003 µM in assay [2] (source organism: Mycobacterium tuberculosis str. Haarlem); 0.006 µM in [12] (source organism: Mycobacterium tuberculosis); at least 5 µM in [22]; at least 5 µM in assay [23]; at least 5 µM in assay [24].
In the case of RSLYNTIAVLY, the figures for the Kd in assay [25] and in [26] were 0.679 µM and 1.91 µM, respectively.
In the case of FQLYPPQIL, the Kd in assay [21] (setting [33]) amounted to 0.033 µM; in assay [27] (setting [33]) it was 0.077 µM.
As for FIILSTGKY, the Kd in assay [1] (setting [33]), in [3] (setting [33]), in assay [4] (setting [33]), in [5] (setting [33]), in assay [6] (setting [33]) and in assay [7] (setting [33]) was at least 20 µM in each case. Moreover, the dissociation constant Kd in [14] (setting [33]) was 0.072 µM; in assay [15] (setting [33]) it was at least 20 µM; in [16] (setting [33]), at least 20 µM; in assay [28] it was at least 20 µM; in assay [19] (setting [33]) it was at least 20 µM.
Regarding LQAMHGFPL, the Kd in [27] (source organism: Escherichia coli O157:H7 str. EDL933) was 0.0968 µM.

For orientation: Kd means the constant that tells how readily two partners part at equilibrium. Lower therefore signals a tighter complex.
